Holding throughout (test): other fluorescence titration
The target of assay [1] is Prdx1 protein labeled with Alexa Fluor 546 (UniProt Q06830).
Assay [2] has the same target. The source holds these as a separate data set.
Assay [3] shares this target. The source holds these as a separate data set.

Read-outs that look alike come from different tables or passages of the source.

Prdx1 protein labeled with Alexa Fluor 546, sequence (Q06830 whole entry): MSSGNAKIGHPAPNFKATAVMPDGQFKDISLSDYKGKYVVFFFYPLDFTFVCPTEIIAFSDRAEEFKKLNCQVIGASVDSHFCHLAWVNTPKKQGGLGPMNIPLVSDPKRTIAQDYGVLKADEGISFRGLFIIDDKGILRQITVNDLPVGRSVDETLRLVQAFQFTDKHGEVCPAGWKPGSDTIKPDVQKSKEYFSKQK

Turning to “MKP-1 protein labeled with QSY 35 (from UniProt P28562 1-367) (enzyme)”, the Kd in assay [1] was found to be 215 nM; in assay [2] it was 210 nM; in assay [3], 261 nM.

For the origin of these results see PMC3936261.
